Results on two substances are retold here after patent US20130177924A1.

The target in assay [1] is blocked scFv having an HRV-3C protease substrate in the peptide linker (H6-MG VH / HL1-TO1 VL), pept. Description: cell-based or functional assay.
The target of assay [2] is blocked scFv having a caspase 3 protease substrate in the peptide linker (H6-MG VH / HL1-TO1 VL), peptide construct SEQ ID NO:51, displayed on yeast. Description: cell-based or functional assay.

In turn, Human Rhinovirus 3C protease (enzyme) yielded a time to complete activation of MG fluorescence, 10^6 yeast cells with 1 unit of HRV-3C protease at 25 C in assay [1] of 30 min.

caspase 3 protease (enzyme) registered a time to complete activation of MG fluorescence, 10^6 yeast cells with 1 unit of caspase 3 protease at 25 C in assay [2] of 30 min.
